From patent US20120156198A1 (Hoffmann-La Roche, published 2012)

T1: human IL-18Rα (IL-18R1) on human cells (KG-1 cells, PBMC, TH1-cultured T cells, whole blood) (human, UniProt Q13478 19-541)
T1 sequence: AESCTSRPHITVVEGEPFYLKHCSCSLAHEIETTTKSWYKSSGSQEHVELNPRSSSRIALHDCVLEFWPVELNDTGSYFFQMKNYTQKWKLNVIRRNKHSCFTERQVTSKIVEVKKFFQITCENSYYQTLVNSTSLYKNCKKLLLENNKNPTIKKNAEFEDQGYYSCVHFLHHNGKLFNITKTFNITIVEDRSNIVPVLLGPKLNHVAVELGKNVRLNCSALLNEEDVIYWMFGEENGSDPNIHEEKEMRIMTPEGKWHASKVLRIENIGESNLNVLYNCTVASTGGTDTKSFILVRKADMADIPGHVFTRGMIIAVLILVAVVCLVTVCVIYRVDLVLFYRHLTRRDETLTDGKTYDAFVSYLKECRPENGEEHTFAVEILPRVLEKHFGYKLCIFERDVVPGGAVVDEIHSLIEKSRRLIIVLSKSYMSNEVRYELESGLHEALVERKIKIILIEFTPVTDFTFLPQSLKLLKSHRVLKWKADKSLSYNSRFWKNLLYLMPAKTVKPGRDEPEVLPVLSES


Experiments:
[1] = molecular target: recombinant human IL-18Rα Fc chimera (R&D Systems, Cat. No. 816-LR) (human) (UniProt Q13478); test: SPR cross-competition, second experiment; antibody 2 injected on hIL-18Rα hFc held by captured antibody 1 (competitor): Mab840
[2] = molecular target: human IL-18Rα (IL-18R1) on human cells (KG-1 cells, PBMC, TH1-cultured T cells, whole blood) (human) (UniProt Q13478); test: cell-based or functional assay
[3] = molecular target: recombinant human IL-18Rα Fc chimera (R&D Systems, Cat. No. 816-LR) (human) (UniProt Q13478); test: SPR cross-competition, second experiment; antibody 2 injected on hIL-18Rα hFc held by captured antibody 1 (competitor): Mab1G12
[4] = molecular target: recombinant human IL-18Rα Fc chimera (R&D Systems, Cat. No. 816-LR) (human) (UniProt Q13478); test: SPR cross-competition, second experiment; antibody 2 injected on hIL-18Rα hFc held by captured antibody 1 (competitor): Mab2D11
[5] = molecular target: T1, human IL-18Rα (IL-18R1) on human cells …; test: cell-based or functional assay

| Molecule | human TH1-assay (IFN-γ after IL-18/IL-12 restimulation), IC90 [pM] [5] | other results |
| --- | --- | --- |
| anti-human IL-18Rα murine MAb Clone 70625 (R&D Systems #MAB840) (antibody) | – | percentage of expected binding response for antibody 2 [1]: 13%; IL-18 induced IFNγ production by human KG-1 cells, IC50 [pM] [2]: 798 pM; percentage of expected binding response for antibody 2 [3]: 97%; percentage of expected binding response for antibody 2 [4]: 97% |
| humanized Mab1G12-12.6 (antibody, V domains shown) VH: QVQLVQSGAEVKKPGASVKVSCKASGYTFTSNWMHWVRQAPGQGLEWMGTIDPSDSYTYYAQKLQGRVTMTTDTSTSTAYMELRSLRSDDTAVYYCTTSGDYDADRYFDVWGQGTTVTVSS VL: EIVLTQSPGTLSLSPGERATLSCRASKSVSTSGDSYMHWYQQKPGQAPRLLIYLASNLETGIPDRFSGSGSGTDFTLTISRLEPEDFAVYYCQQSRELPLSFGQGTKLEIK | 399 pM | – |
| humanized Mab1G12-10.5 (antibody, V domains shown) VH: QVQLVQSGAEVKKPGASVKVSCKASDYTFTSNWMHWVRQAPGQGLEWMGTIDPSDSYTYYNQKFQGRATMTVDTSTSTVYMELSSLRSEDTAVYYCTTSGDYDADRYFDVWGQGTTVTVSS VL: DIQMTQSPSSLSASVGDRVTITCQASKSVSTSGDSYMHWYQQKPGKAPKLLIYLASNLETGVPSRFSGSGSGTDFTFTISSLQPEDIATYYCQQSRELPLSFGQGTKLEIK | 283 pM | – |
| humanized Mab1G12-11.6 (antibody, V domains shown) VH: QVQLVQSGAEVKKPGASVKVSCKASGYTFTSNWMHWVRQAPGQGLEWMGTIDPSDSYTYYAQKFQGRVTMTRDTSISTAYMELSRLRSDDTAVYYCTTSGDYDADRYFDVWGQGTTVTVSS VL: EIVLTQSPGTLSLSPGERATLSCRASKSVSTSGDSYMHWYQQKPGQAPRLLIYLASNLETGIPDRFSGSGSGTDFTLTISRLEPEDFAVYYCQQSRELPLSFGQGTKLEIK | 77 pM | – |

Now from value to molecule, other results behind:

| human TH1-assay (IFN-γ after IL-18/IL-12 restimulation), IC90 [pM] [5] | Molecule | other results |
| --- | --- | --- |
| 148 pM | humanized Mab1G12-9.6 (antibody, V domains shown) VH: QVQLVQSGAEVKKPGASVKVSCKASDYTFTSNWMHWVRQAPGQGLEWMGTIDPSDSYTYYNQKFQGRVTMTRDTSTSTVYMELSSLRSEDTAVYYCTTSGDYDADRYFDVWGQGTTVTVSS VL: EIVLTQSPGTLSLSPGERATLSCRASKSVSTSGDSYMHWYQQKPGQAPRLLIYLASNLETGIPDRFSGSGSGTDFTLTISRLEPEDFAVYYCQQSRELPLSFGQGTKLEIK | – |
| 93.5 pM | humanized Mab1G12-10.6 (antibody, V domains shown) VH: QVQLVQSGAEVKKPGASVKVSCKASDYTFTSNWMHWVRQAPGQGLEWMGTIDPSDSYTYYNQKFQGRATMTVDTSTSTVYMELSSLRSEDTAVYYCTTSGDYDADRYFDVWGQGTTVTVSS VL: EIVLTQSPGTLSLSPGERATLSCRASKSVSTSGDSYMHWYQQKPGQAPRLLIYLASNLETGIPDRFSGSGSGTDFTLTISRLEPEDFAVYYCQQSRELPLSFGQGTKLEIK | – |
